Assay results as given in patent US20260069689A1 (Regeneron, published 2026).
Several values for one entry are separate records, joined by “and”; a condition that tells them apart may be missing. Equal values may be shown once.

B1: mAb14292 (antibody, V domains shown)
VH: EVQLVESGGGLVQPGGSLRLSCVASGFAFSTYEMNWVRQAPGKGLEWVSYISSSGSTIYYADSVKGRLTISRDNVKNSLYLQMNSLRVEDTAIYYCARDAIRNNDILTDPATFDPWGQGTLVTVSS
VL: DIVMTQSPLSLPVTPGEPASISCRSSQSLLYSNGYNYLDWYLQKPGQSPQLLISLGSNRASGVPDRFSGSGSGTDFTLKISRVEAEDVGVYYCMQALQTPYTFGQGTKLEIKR
B2: mAb15163 (antibody, V domains shown)
VH: EVQLVETGGGLIQPGESLRLSCAASGFIVSTNYMNWVRQAPGKGLEWVSVIYRGGSTYYADSVKGRFTISRDNSKNTLFLQMNSLRAEDTAVYYCARGHEDFDYDTPASGAFDIWGQGTMVTVSS
VL: QSALTQPPSASGSPGQSVTISCTGTSSDVGGHNYVSWYQQHPGKAPKVMIYEVSKRPSGVPDRFSGSKSGNTASLTVSGLQAEDEADYYCSSYAGSNKFVFGTGTKVTVLG
B3: mAb15160 (antibody, V domains shown)
VH: EVQLVESGGGLVQPGGSLRLSCSASGFTFSRYAMYWVRQAPGKGLEYVSAISSDGGSTYDADSVKGRFTISRANSKNTLYLQMSSLRAEDTAVYYCVKGLRELLYYYYGMDVWGQGTTVTVSS
VL: DIQMTQSPSSLSASVGDRVTITCRAGQSISSFLNWYQQKPGKAPKLLIYAASSLQSGVPSRFSGSGSGTDFTLTISSLQPEDFATYYCQQSYITPFTFGPGTKVDIKR
B4: mAb14289 (antibody, V domains shown)
VH: QVQLVQSGPEVKKPGASVKVSCKASGYTFTSYAISWVRQAPGQGLEWMGWISAYNGNTNYAQKLQGRVTMTTDTFTSTAYMELRSLRSDDTAVYYCAVPADHITFDYWGQGTLVTVSS
VL: EIVLTQSPGTLSLSPGERATLSCRASQSVSSYLAWYQQKPGQAPRLLIHGASSRATGIPDRFSGSGSGTDFTLTISRLEPEDFAVYYCQQYGSSFLTFGGGTKVEIKR
B5: mAb15164 (antibody, V domains shown)
VH: EVQLVESGGGLVQPGGSLRLSCAASGFAVSSNYMTWVRQAPGKGLEWVATIYSGDSTYYADSVKGRFTISRHNSKNTLSLQMNSLRADDTAIYYCARLSGVLSGTYNGAFDIWGQGTMVTVSS
VL: QSALTQPASVSGSPGQSITISCTGTSSDFGNYNIVSWYQQHPGQAPKVMIYEGNKRPSGVSNRFSGSKSGHTASLTISGLQAEDEADYYCSSYAGSSTWVFGGGTKLTVLG
B6: mAb15166 (antibody, V domains shown)
VH: EVQLVESGGGLVQPGGSLRLSCAASGFTVTSNYMSWVRQAPGKGLEWVSAIYSGESTYYADSVKGRFTISRDSSKNTLYLQMNSLRVEDTAVYYCASIHDYSNYVGGFDPWGQGTLVTVSS
VL: QSALTQPASVSGSPGQSITISCTGPSSDFGSYNLVSWYQQHPGKAPKLMIYEGTKRPSGVSNRFSGSKSGNTASLTISGLQAEDEADYYCSSYAGSSTWVFGGGTKLTVLG
B7: mAb15165 (antibody, V domains shown)
VH: EVQLVESGGGLVQPGGSLRLSCAASGFTVSSNYMSWVRQAPGKGLEWVSAIYSGDSTYYADSVKGRFTISKDNSKNTLYLQMNSLRGEDTAVYYCARLGGALQAYDGAFDYWGQGTLATVSS
VL: QSALTQPASVSGSPGQSITISCTGTSSDFGSYNLVSWYQQHPGKAPKLMIYEGNKRPSGVSIRFSGSKSGNTASLTISGLQAEDEADYYCSSYAGSSTWVFGGGTKLTVLG
B8: mAb15158 (antibody, V domains shown)
VH: EVQLVESGGGLVQPGGSLRLSCAASGFSFSSNWMSWVRQAPGKGLEWVGNINQDGSEKYYVDSVEGRFTISRDNAKKSLYLQMNSLRAEDTAVYYCARDLGVLWFGDFVDWGQGALVTVSS
VL: DIQMTQSPSSLSASVGDRVTITCRASQAISNSLAWYQQKPGKAPKLLLYAASTLESGVPSRFSGSGSGTDYTLTISSLQPEDFATYYCLQYYGSPRTFGQGTKVEIKR
B9: mAb14312 (antibody, V domains shown)
VH: EVQLVESGGGLVQPGGSLRLSCAASGFTVSRSYMTWVRQAPGKGLEWVSVIFTGGRTDHADSVKGRFTISRHNSKNTLYLQMNSLRTEDTAVYYCARVAIVGATGAFDIWGQGTMVTVSS
VL: QSVLTQPPSVSGAPGQRVTISCTGSSSNIGAGDDVHWYQQLPGTAPKLLIYGNSNRPSGVPDRFSGSKSGTSASLAITGLQAEDEADYYCQSYDSSLSGSVVFGGGTKLTVLG
B10: mAb15159 (antibody, V domains shown)
VH: EVQLVESGGGLVQPGGSLRLSCAASGITVSSNYMTWVRQAPGKGLEWVSLIYSGGSTFYADSVRGRFTISRDNSKNTLYLQMNSLRAEDTAVYYCARDLVVYGMDVWGQGTTVTVSS
VL: DIQLTQSPSSLSASVGDRVTITCRASQGISSYLAWYQQKPGKAPKLLIYAASTLQSGVPSRFSGSGSGTDFTLTISSLQPEDFATYYCQHLNSDPHTFGQGTKLEIKR
B11: mAb14313 (antibody, V domains shown)
VH: EVQLVESGGGLVQPGRSLRLSCVASGFTFDDSAMHWVRQPPGKGLEWVSGISWNSGIIGYAESVKGRFIISRDNAKNSLFLHMRGLRPEDTAVYYCARDRLELSYYYYGMDVWGQGTTVTVSS
VL: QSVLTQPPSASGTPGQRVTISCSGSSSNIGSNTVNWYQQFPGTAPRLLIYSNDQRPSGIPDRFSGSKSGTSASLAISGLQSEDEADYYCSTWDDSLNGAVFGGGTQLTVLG
B12: mAb14294 (antibody, V domains shown)
VH: EVQLVESGGGLVQPGGSLRLSCAASGFTFSNHWMDWVRQAPGKGLVWVSRINSDGSSTDYADSVRGRFTMSRDNAKNTLYLQMSSLRAEDTAVYYCAREGMIFGAVIIPGWYFDLWGRGALVTVSS
VL: EIVLTQSPGTLSLSPGERATLSCRASQSVSSSQLAWYQQKPGQAPRLLIYGASSRATGIPDRFSGSGSGTDFTLTISRLEPEDFAVYYCQQYDSFGQGTKLEIKR
B13: mAb14315 (antibody, V domains shown)
VH: QVQLVQSGAEVKKPGSSVKVSCKASGDTFSTYAINWVRQAPGQGLEWMGRFIHIFGTANYAQKFQGRVTITADESTSTAYMELRSLRSEDTAVYYCARDGVDYGDYRPDYWGQGTLVTVSS
VL: EIVLTQSPGTLSLSPGERATLSCRASQSVSSNYLAWYQQKPGQAPRLLIYGASSRATGIPERFSGSGSGTDFTLTISRLEPEDFAVYYCQQYGSSLYTFGQGTKLEIKR
B14: mAb14286 (antibody, V domains shown)
VH: QVQLVQSGAEVKKPGASVKVSCKASGYTFTDYFIHWVRQAPGQGLEWMGWINPTSGGTNYAQKFRGRVTMTRDTSISTAYVELSRLRSDDTALYYCARDLPFYSDTKQFDYWGQGTLVTVSS
VL: QSALTQPASVSGYPGQSITISCTGTSSDVGGYNYVSWYQQHPGKAPKLMIFDVSNRPSGVSNRFSGSKSGNTASLTFSGLQAEDEADYYCSSYTSSSTLVFGGGTKLTVLG
B15: mAb15162 (antibody, V domains shown)
VH: EVQLVETGGGLIQPGGSLRLSCAASEFIVSRNYMSWVRQAPGKGLEWVSLIYSGGSTYYADSVKGRFTISRDNSKNILYLQMNSLRAEDTAVYYCARDRGGISDYWGQGTLVTVSS
VL: DIQMTQSPSSLSASVGDRVTITCQASQDINKYLNWFQQKPGKAPKLLIYDASNLETGVPSRFSGSGSGTDFTFTISSLQPEDIATYYCQQYDNLPRTFGQGTKLEIKR
B16: mAb15161 (antibody, V domains shown)
VH: EVQLVESGGGLVQPGGSLRLSCAASGFTFSSYEMNWVRQAPGKGLEWVSYISSSGSILYYADSVKGRFTASRDNAKNSLYLQMNSLRAEDTGVYYCARREYQLLRPFEFWGQGTLVTVSS
VL: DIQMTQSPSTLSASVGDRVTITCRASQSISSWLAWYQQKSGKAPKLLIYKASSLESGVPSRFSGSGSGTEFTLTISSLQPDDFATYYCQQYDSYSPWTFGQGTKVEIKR
B17: mAb15156 (antibody, V domains shown)
VH: QLQLQESGPGLVKSSETLSLTCTVSASITGSTYYWGWIRQPPGKGLEWIGSIYYSGTTYYKASLKSRVTISVDTSKNQFSLKLTSVTVADTAVYYCVSHLLGNYHKYGMDVWGQGTTVTVSS
VL: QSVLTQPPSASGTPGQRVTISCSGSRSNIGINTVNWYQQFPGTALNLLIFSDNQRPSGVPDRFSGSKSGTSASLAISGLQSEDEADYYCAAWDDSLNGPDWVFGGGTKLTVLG
B18: mAb15157 (antibody, V domains shown)
VH: EVQLVESGGALVQPGGSLRLSCAASGFPFTIYAMTWVRQAPGKGLEWVSVITGSGDSTYYADSVKGRFTISRDNSKNTLYLQMNSLRAEDTAVYYCVKTGEGFFYYYYGMDVWGQGTTVTVSS
VL: QSVLTQPPSVSAAPGQKVTISCSGSSSNIGNSYISWYQQLPGTAPKLLIYVNNKRPSGIPDRFSGSKSGTSATLGITGLQTGDEADYYCGTWDSSLSAGVFGSGTKVTVLG

Legend:
[1] = target: T1, SARS-COV-2 RBD-MMH (SARS-COV-2 RBD extracellular domain with C-terminal myc-myc-hexahistidine tag) (SARS-CoV-2)
[2] = target: T1, SARS-COV-2 RBD-MMH (SARS-COV-2 RBD …); assay: SPR 37C, mAb captured, pH 7.4 vs pH 6.0
[3] = target: SARS-CoV-2 RBD.mmh (Spike amino acids Arg319-Phe541 with C-terminal myc-myc-6-Histidine tag) (SARS-CoV-2, UniProt P0DTC2 319-541)

| Binder | koff [1] | t½ at pH 6.0 [1] | t½ at pH 7.4 [1] | t½ Ratio of pH 7.4 to pH 6.0 [2] | IC50 [3] |
| --- | --- | --- | --- | --- | --- |
| B1 | 0.00141 s⁻¹ and 0.00178 s⁻¹ | 6.5 min | 8.2 min | 1.3 | 0.254 nM |
| B2 | 0.00104 s⁻¹ | 11.1 min | 23.4 min | 2.1 | 0.217 nM |
| B3 | 0.00283 s⁻¹ | 4.1 min | 5.3 min | 1.3 | 0.204 nM |
| B4 | 0.00272 s⁻¹ | 4.2 min | 6.2 min | 1.5 | 0.378 nM |
| B5 | 0.0021 s⁻¹ | 5.5 min | 5.1 min | 0.9 | 0.245 nM |
| B6 | 0.0301 s⁻¹ | 0.4 min | 0.4 min | 1 | 0.475 nM |
| B7 | 0.00128 s⁻¹ | 9.1 min | 7.1 min | 0.8 | 0.189 nM |
| B8 | 0.00029 s⁻¹ | 40.1 min | 37 min | 0.9 | 0.309 nM |
| B9 | 0.00177 s⁻¹ | 6.5 min | 13.5 min | 2.1 | 0.134 nM |
| B10 | 0.000412 s⁻¹ | 28.1 min | 50 min | 1.8 | 0.156 nM |
| B11 | 0.00251 s⁻¹ and 0.0041 s⁻¹ | 2.8 min | 4.6 min | 1.6 | 16.4 nM |
| B12 | 0.000565 s⁻¹ | 20.5 min | 12.6 min | 0.6 | 0.244 nM |
| B13 | 0.000946 s⁻¹ | 12.2 min | 11.8 min | 1 | 17.2 nM |
| B14 | 0.00999 s⁻¹ | 1.2 min | 1.2 min | 1 | 0.641 nM |
| B15 | 0.00354 s⁻¹ | 3.3 min | 3.9 min | 1.2 | 0.756 nM |
| B16 | 0.00107 s⁻¹ | 10.8 min | 10.3 min | 0.9 | 0.584 nM |
| B17 | 0.0097 s⁻¹ | 1.2 min | 1.7 min | 1.4 | 0.269 nM |
| B18 | 0.00766 s⁻¹ | 1.5 min | 2.9 min | 1.9 | 0.357 nM |
